This is an account of results in paper PMC9786865, “Molecular Cloning and Characterization of a New Family VI Esterase from an Activated Sludge Metagenome” (Microorganisms, 2022).

Substrate in this data set: CC(=O)Oc1ccc([N+](=O)[O-])cc1
Description: purified protein. Particulars: 50 mM Tris-HCl pH 8.0, 40 °C, 5 min, 0.08-1.0 mM substrate. It is filed as biochemical, uncultured sludge bacterium.

B1: Est6 (uncultured sludge bacterium) (protein)
chain: MTELRINDDLVRWTVDRRPATADEALRALETRPLVLLMHGFGSFEGDLISLAAELPDGIVCASPRAPLTLPPPTVNGYAWWEIVFRADGTVVRSDPPAFEDSDAHTATLAILAWLDALDARVAGGLRTVVPLGFSQGGCMVTSLLRMQPTRFPCGVNCSGFVAPGSYAGDPELAAIRPPLFWGRDPADPIIEAERIDATAVWSAAHTAIEAHIYHGIGHGIGREEIADISAFIERHLAEAEH
notes: pPAL7 N-terminal Profinity eXact tag cleaved on column; E. coli BL21 Star (DE3); monomer; primers encode MTELRI... start and ...AEAEH end
B1: the Km was 1070 µM and the kcat amounted to 10.46 s⁻¹.
